# Target: plasminogen
# Test: cell-based or functional assay
substance,measurement,value
Bacteriophages which harbored K2S on gpIII (K2S-phi; printed with a garbled symbol as K2S-?) (from UniProt P00750 209-562),fibrinogen-dependent enzymatic activity,< 0.25 IU/ml

# Reference: patent publication US20030049729A1
